Test results published in US20080242608A1 (published 2008).

B1: Endogenous FOXO3 (293T cells) (other, UniProt O43524 1-673, looked up)
chain: MAEAPASPAPLSPLEVELDPEFEPQSRPRSCTWPLQRPELQASPAKPSGETAADSMIPEEEDDEDDEDGGGRAGSAMAIGGGGGSGTLGSGLLLEDSARVLAPGGQDPGSGPATAAGGLSGGTQALLQPQQPLPPPQPGAAGGSGQPRKCSSRRNAWGNLSYADLITRAIESSPDKRLTLSQIYEWMVRCVPYFKDKGDSNSSAGWKNSIRHNLSLHSRFMRVQNEGTGKSSWWIINPDGGKSGKAPRRRAVSMDNSNKYTKSRGRAAKKKAALQTAPESADDSPSQLSKWPGSPTSRSSDELDAWTDFRSRTNSNASTVSGRLSPIMASTELDEVQDDDAPLSPMLYSSSASLSPSVSKPCTVELPRLTDMAGTMNLNDGLTENLMDDLLDNITLPPSQPSPTGGLMQRSSSFPYTTKGSGLGSPTSSFNSTVFGPSSLNSLRQSPMQTIQENKPATFSSMSHYGNQTLQDLLTSDSLSHSDVMMTQSDPLMSQASTAVSAQNSRRNVMLRNDPMMSFAAQPNQGSLVNQNLLHHQHQTQGALGGSRALSNSVSNMGLSESSSLGSAKHQQQSPVSQSMQTLSDSLSGSSLYSTSANLPVMGHEKFPSDLDLDMFNGSLECDMESIIRSELMDADGLDFNFDSLISTQNVVGLNVGNFTGAKQASSQSWVPG

Key:
[1] = target: T1, protein kinase MLK3 (endogenous, 293T cells) (UniProt Q16584 1-847); experiment: co-IP from 293T lysates with rabbit FOXO3 antibody, MLK3 immunoblot
T1 construct: Negative control in the co-immunoprecipitation of endogenous FOXO3

[2] = target: B1; experiment: co-IP from 293T lysates with rabbit FOXO3 antibody, MST1 immunoblot

T1 sequence (Q16584 whole entry): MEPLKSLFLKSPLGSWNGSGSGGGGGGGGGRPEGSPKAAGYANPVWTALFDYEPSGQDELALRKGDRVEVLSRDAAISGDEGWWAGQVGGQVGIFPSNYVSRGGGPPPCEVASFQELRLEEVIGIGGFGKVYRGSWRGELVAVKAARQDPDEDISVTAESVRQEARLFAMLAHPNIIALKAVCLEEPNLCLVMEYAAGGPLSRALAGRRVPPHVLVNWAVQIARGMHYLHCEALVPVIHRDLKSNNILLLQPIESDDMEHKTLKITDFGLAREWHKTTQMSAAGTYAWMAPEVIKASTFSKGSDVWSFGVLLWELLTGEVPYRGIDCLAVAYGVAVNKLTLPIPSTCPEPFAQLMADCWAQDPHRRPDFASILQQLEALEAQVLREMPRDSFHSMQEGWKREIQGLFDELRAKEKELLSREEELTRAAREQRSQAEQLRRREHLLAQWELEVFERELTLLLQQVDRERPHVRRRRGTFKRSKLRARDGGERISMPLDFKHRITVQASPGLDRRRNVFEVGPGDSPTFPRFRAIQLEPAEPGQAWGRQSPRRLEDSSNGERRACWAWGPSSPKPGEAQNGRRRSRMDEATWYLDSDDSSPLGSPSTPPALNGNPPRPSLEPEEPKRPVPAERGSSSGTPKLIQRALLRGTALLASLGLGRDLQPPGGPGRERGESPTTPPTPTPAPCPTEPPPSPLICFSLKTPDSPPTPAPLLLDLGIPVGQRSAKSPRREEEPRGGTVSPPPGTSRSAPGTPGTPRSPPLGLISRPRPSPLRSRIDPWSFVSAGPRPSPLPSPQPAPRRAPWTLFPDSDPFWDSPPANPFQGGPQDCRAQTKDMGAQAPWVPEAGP

B1: no binding [1].

B2: Endogenous MST1 (293T cells) (enzyme, UniProt Q13043 1-487, looked up)
chain: METVQLRNPPRRQLKKLDEDSLTKQPEEVFDVLEKLGEGSYGSVYKAIHKETGQIVAIKQVPVESDLQEIIKEISIMQQCDSPHVVKYYGSYFKNTDLWIVMEYCGAGSVSDIIRLRNKTLTEDEIATILQSTLKGLEYLHFMRKIHRDIKAGNILLNTEGHAKLADFGVAGQLTDTMAKRNTVIGTPFWMAPEVIQEIGYNCVADIWSLGITAIEMAEGKPPYADIHPMRAIFMIPTNPPPTFRKPELWSDNFTDFVKQCLVKSPEQRATATQLLQHPFVRSAKGVSILRDLINEAMDVKLKRQESQQREVDQDDEENSEEDEMDSGTMVRAVGDEMGTVRVASTMTDGANTMIEHDDTLPSQLGTMVINAEDEEEEGTMKRRDETMQPAKPSFLEYFEQKEKENQINSFGKSVPGPLKNSSDWKIPQDGDYEFLKSWTVEDLQKRLLALDPMMEQEIEEIRQKYQSKRQPILDAIEAKKRRQQNF
B2: binds [2].
